The values that follow come from publication PMC2192122.

The first assay concerns the target MHC class II molecule I-Ad (mouse (endogenous in A20 lymphoma cells)). The experiment in a line: radioligand binding.
Conditions: not given
“OVA peptide 323-339 (unlabeled) (from UniProt P01012 324-340)”: the IC50 stood at 131 nM.

The assay is the same for the next values; noted with them: scale: relative to unlabeled OVA peptide 323-339.
The molecule “SWM peptide 105-116-[G108] (from UniProt P02185 106-117)” had a relative binding to MHC of 0.1.

LEFIGEAIIHVL [SWM peptide 104-115-[G108]] yielded a relative binding to MHC of 0.013.

In turn, KYLEFIGEAIIH [SWM peptide 102-113-[G108]] registered a relative binding to MHC of 0.011. Still for that read-out and setting: in the case of AIIHVLHSRHPG [sperm whale myoglobin (SWM) peptide 110-121] it was 0.59; in that of IKYLEFIGEAII [SWM peptide 101-112-[G108]], 0.003; in that of EFGSEAIIHVLH [SWM peptide 105-116-[G107]], 0.34. The same measure, in the same setting: with EFISEAIIPVLH [SWM peptide 105-116-[P113]] the figure was 1.8; with EFISEAIIHVLH [sperm whale myoglobin (SWM) peptide 105-116], 1.5. Still for that read-out and setting: in the case of EFISEAIIHILH [SWM peptide 105-116-[I114]] it was 0.01. Regarding YLEFIGEAIIHV [SWM peptide 103-114-[G108]], the relative binding to MHC worked out at 0.04. Still for that read-out and setting: with EFISEAIIHLLH [SWM peptide 105-116-[L114]] the figure was 0.18.

One may read the IC50 as the concentration at which inhibition is half-maximal.
